# Results reported in article PMC6351631, “Biochemical and Proteomic Characterization of Recombinant Human α/β Hydrolase Domain 6” (Scientific Reports, 2019).
# T1: human alpha/beta hydrolase domain 6 (hABHD6) (Homo sapiens, UniProt Q9BV23, DEL38-40)
# T1 construct: gene ABHD6; hΔ29-3-ABHD6 (first 29 residues and Y38YW deleted, N-terminal His6) for MS; full-length hABHD6 in solubilized E. coli membrane fraction for IC50
# T1 sequence (Q9BV23 with tags, fused parts or gaps DEL38-40): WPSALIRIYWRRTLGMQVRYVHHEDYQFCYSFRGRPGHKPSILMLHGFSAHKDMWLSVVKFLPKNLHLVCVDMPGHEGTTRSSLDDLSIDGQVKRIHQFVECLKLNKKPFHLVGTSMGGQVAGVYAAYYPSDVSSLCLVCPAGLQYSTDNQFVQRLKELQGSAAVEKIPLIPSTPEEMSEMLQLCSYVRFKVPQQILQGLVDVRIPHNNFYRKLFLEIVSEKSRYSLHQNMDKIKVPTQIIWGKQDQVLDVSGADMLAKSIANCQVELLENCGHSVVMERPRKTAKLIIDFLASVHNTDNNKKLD
# B1: human alpha/beta hydrolase domain 6 (hABHD6) (Homo sapiens; DEL38-40) (protein)
# chain: T1 sequence (Q9BV23 with tags, fused parts or gaps DEL38-40)
# How the values were obtained:
# [1] = biological target: T1, human alpha/beta hydrolase domain 6 (hABHD6); assay: MALDI-TOF MS of tryptic digest showing +[…] Da adduct on purified enzyme; fluorometric AHMMCE inhibition assay; format: binding
# [2] = substrate: CCCCC/C=C\C/C=C\C/C=C\C/C=C\CCCC(=O)OC(CO)CO; assay: HPLC quantification of arachidonic acid formed, Michaelis-Menten kinetics (Km); format: biochemical, Homo sapiens
molecule,measurement,setting,value
CN(C)C(=O)n1nnc(Cc2ccc(-c3ccccc3)cc2)n1 [AM6701],IC50,[1],0.9 nM
B1,Km,[2],139 µM
same,Vmax,[2],0.35 µM/min/mg
